# Molecular target: T1, DNAJB6b wt (human, UniProt O75190-2 1-241)
# T1 construct: DNAJB6b, human, the 241-residue b isoform of DNAJB6; No tags; also called wt DNAJB6b; unlabelled DNAJB6b
# Test: native gel or EMSA; agarose gel imaged on an IR fluorescence scanner; 5 nM DNAJB6b-CCys-IR680 mixed with unlabelled DNAJB6b-wt to total concentrations of 5 nM to 32 µM
# Details: both partners purified
# T1 sequence (O75190 other isoform, or with tags, fused parts or gaps): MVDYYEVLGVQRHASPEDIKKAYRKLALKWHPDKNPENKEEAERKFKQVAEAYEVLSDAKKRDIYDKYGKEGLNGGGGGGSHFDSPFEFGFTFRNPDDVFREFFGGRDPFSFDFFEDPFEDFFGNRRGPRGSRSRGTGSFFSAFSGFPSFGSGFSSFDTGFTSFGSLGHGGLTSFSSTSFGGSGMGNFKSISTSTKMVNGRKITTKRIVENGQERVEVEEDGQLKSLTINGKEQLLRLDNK
# DNAJB6b-CCys-IR680, sequence (O75190 other isoform, or with tags, fused parts or gaps binds): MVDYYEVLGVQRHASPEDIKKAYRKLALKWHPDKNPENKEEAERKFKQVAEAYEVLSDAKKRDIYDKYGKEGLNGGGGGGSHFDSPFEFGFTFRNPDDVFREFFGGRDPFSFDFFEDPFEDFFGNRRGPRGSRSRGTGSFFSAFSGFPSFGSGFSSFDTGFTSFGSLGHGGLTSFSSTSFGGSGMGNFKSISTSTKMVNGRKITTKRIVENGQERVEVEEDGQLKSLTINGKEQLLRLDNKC
binder,measurement,value
"DNAJB6b-CCys-IR680 (natural protein, IRdye-680 (maleimide dye) on the engineered C-terminal cysteine, DNAJB6b, human, the 241-residue b isoform of DNAJB6, no tags; a cysteine residue added at the C-terminus (variant CCys); also called IR680-labelled DBAJB6b; DNAJB6-CCys labelled with IRdye680; source: E. coli BL21 DE3 pLysS star, purified as wt with 1 mM DTT in all buffers; labelled with IRdye680 maleimide, free dye removed by SEC) not shown",binding result,binds

# — article PMC8781954, “High-Efficiency Expression and Purification of DNAJB6b Based on the pH-Modulation of Solubility and Denaturant-Modulation of Size” (Molecules, 2022)
